Data: the supplement of paper PMC9112550, “Optimization of the antimicrobial peptide Bac7 by deep mutational scanning” (BMC Biology, 2022)

test system: Escherichia coli TOP10; experiment: shrunken log2 fold change of peptide-encoding DNA abundance (4.5 h post-induction vs induction); higher = less antimicrobial activity (less host growth inhibition); settings: time post-induction: 4.5 h; library: site-saturation at positions 5, 18, 19, 20
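Note: peptides expressed intracellularly from a pBAD plasmid library in pooled LB shake-flask culture, induced with 0.3% L-arabinose, DNA abundance read by NGS, three biological replicates, DESeq2 with apeglm shrinkage.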

In order of rising “shrunken log2 fold change” value:
1. RRIRHRPPRLPRPRPRPNWYPRP  -0.928
2. RRIRIRPPRLPRPRPRPHIQPRP  -0.791
3. RRIRIRPPRLPRPRPRPTYNPRP  -0.783
4. RRIRCRPPRLPRPRPRPSVKPRP  -0.765
5. RRIRHRPPRLPRPRPRPFRYPRP  -0.737
6. RRIRERPPRLPRPRPRPHINPRP  -0.713
7. RRIRERPPRLPRPRPRPSWFPRP  -0.589
8. RRIRCRPPRLPRPRPRPCTCPRP  -0.583
9. RRIRERPPRLPRPRPRPFRKPRP  -0.534
10. RRIRMRPPRLPRPRPRPHCPPRP  -0.506
11. RRIRLRPPRLPRPRPRPLIAPRP  -0.498
12. RRIRHRPPRLPRPRPRPSTMPRP  -0.493
13. RRIRCRPPRLPRPRPRPIAIPRP  -0.443
14. RRIRYRPPRLPRPRPRPFPEPRP  -0.423
15. RRIRIRPPRLPRPRPRPYVGPRP  -0.384
16. RRIRIRPPRLPRPRPRPHLTPRP  -0.379
17. RRIRSRPPRLPRPRPRPHKYPRP  -0.377
18. RRIRARPPRLPRPRPRPTYMPRP  -0.36
19. RRIRERPPRLPRPRPRPQDLPRP  -0.351
20. RRIRHRPPRLPRPRPRPRTIPRP  -0.344
21. RRIRTRPPRLPRPRPRPYAVPRP  -0.331
22. RRIRNRPPRLPRPRPRPECYPRP  -0.329
23. RRIRQRPPRLPRPRPRPCVLPRP  -0.298
24. RRIRKRPPRLPRPRPRPCRLPRP  -0.298
25. RRIRTRPPRLPRPRPRPPWNPRP  -0.288
26. RRIRTRPPRLPRPRPRPFSIPRP  -0.284
27. RRIRFRPPRLPRPRPRPNFSPRP  -0.283
28. RRIRVRPPRLPRPRPRPEYSPRP  -0.273
29. RRIRTRPPRLPRPRPRPKVMPRP  -0.243
30. RRIRIRPPRLPRPRPRPYAPPRP  -0.242
31. RRIRERPPRLPRPRPRPVTIPRP  -0.233
32. RRIRYRPPRLPRPRPRPFFGPRP  -0.225
33. RRIRERPPRLPRPRPRPCPAPRP  -0.224
34. RRIRGRPPRLPRPRPRPWNDPRP  -0.222
35. RRIRSRPPRLPRPRPRPHTDPRP  -0.216
36. RRIRLRPPRLPRPRPRPQQHPRP  -0.212
37. RRIRLRPPRLPRPRPRPWWFPRP  -0.21
38. RRIRVRPPRLPRPRPRPQYAPRP  -0.193
39. RRIRPRPPRLPRPRPRPSKAPRP  -0.175
40. RRIRNRPPRLPRPRPRPDIFPRP  -0.172
41. RRIRLRPPRLPRPRPRPDQWPRP  -0.158
42. RRIRPRPPRLPRPRPRPGSMPRP  -0.149
43. RRIRRRPPRLPRPRPRPGNTPRP  -0.142
44. RRIRRRPPRLPRPRPRPNHCPRP  -0.142
45. RRIRYRPPRLPRPRPRPFPQPRP  -0.137
46. RRIRNRPPRLPRPRPRPRHVPRP  -0.119
47. RRIRPRPPRLPRPRPRPCQQPRP  -0.119
48. RRIRLRPPRLPRPRPRPEGQPRP  -0.118
49. RRIRCRPPRLPRPRPRPFDRPRP  -0.115
50. RRIRPRPPRLPRPRPRPHPFPRP  -0.115
51. RRIRARPPRLPRPRPRPPKYPRP  -0.109
52. RRIRNRPPRLPRPRPRPCASPRP  -0.106
53. RRIRKRPPRLPRPRPRPLYSPRP  -0.105
54. RRIRWRPPRLPRPRPRPFREPRP  -0.105
55. RRIRRRPPRLPRPRPRPVWSPRP  -0.103
56. RRIRERPPRLPRPRPRPWAVPRP  -0.0984
57. RRIRLRPPRLPRPRPRPWNFPRP  -0.0899
58. RRIRLRPPRLPRPRPRPTTNPRP  -0.0886
59. RRIRGRPPRLPRPRPRPPYSPRP  -0.084
60. RRIRNRPPRLPRPRPRPLELPRP  -0.0825
61. RRIRARPPRLPRPRPRPETFPRP  -0.0526
62. RRIRQRPPRLPRPRPRPLCWPRP  -0.0481
63. RRIRRRPPRLPRPRPRPVKLPRP  -0.0474
64. RRIRDRPPRLPRPRPRPRIRPRP  -0.0469
65. RRIRQRPPRLPRPRPRPASPPRP  -0.0456
66. RRIRDRPPRLPRPRPRPNMSPRP  -0.0444
67. RRIRTRPPRLPRPRPRPAYQPRP  -0.0436
68. RRIRVRPPRLPRPRPRPTFDPRP  -0.0428
69. RRIRPRPPRLPRPRPRPLAFPRP  -0.0389
70. RRIRCRPPRLPRPRPRPGQDPRP  -0.0365
71. RRIRNRPPRLPRPRPRPCGRPRP  -0.0266
72. RRIRPRPPRLPRPRPRPMMHPRP  -0.0262
73. RRIRYRPPRLPRPRPRPEFRPRP  -0.0207
74. RRIRHRPPRLPRPRPRPFAAPRP  -0.0135
75. RRIRCRPPRLPRPRPRPSDQPRP  -0.0132
76. RRIRFRPPRLPRPRPRPWKTPRP  -0.0119
77. RRIRDRPPRLPRPRPRPCEDPRP  -0.0105
78. RRIRMRPPRLPRPRPRPWTNPRP  -0.01
79. RRIRYRPPRLPRPRPRPETCPRP  -0.00674
80. RRIRERPPRLPRPRPRPVHTPRP  -0.00346
81. RRIRERPPRLPRPRPRPNYRPRP  -0.000813
82. RRIRDRPPRLPRPRPRPHDHPRP  0.00042
83. RRIRERPPRLPRPRPRPWNSPRP  0.0019
84. RRIRVRPPRLPRPRPRPDCQPRP  0.00516
85. RRIRIRPPRLPRPRPRPQSGPRP  0.00632
86. RRIRWRPPRLPRPRPRPIVCPRP  0.0105
87. RRIRKRPPRLPRPRPRPSDPPRP  0.0131
88. RRIRFRPPRLPRPRPRPCPKPRP  0.036
89. RRIRWRPPRLPRPRPRPNLQPRP  0.0402
90. RRIRRRPPRLPRPRPRPEMVPRP  0.0411
91. RRIRMRPPRLPRPRPRPMSSPRP  0.0418
92. RRIRNRPPRLPRPRPRPNLEPRP  0.0441
93. RRIRRRPPRLPRPRPRPGKMPRP  0.0473
94. RRIRQRPPRLPRPRPRPKCQPRP  0.0473
95. RRIRHRPPRLPRPRPRPAMHPRP  0.0521
96. RRIRGRPPRLPRPRPRPWMKPRP  0.0546
97. RRIRNRPPRLPRPRPRPAWMPRP  0.056
98. RRIRLRPPRLPRPRPRPELTPRP  0.067
99. RRIRTRPPRLPRPRPRPFGYPRP  0.0679
100. RRIRLRPPRLPRPRPRPSMWPRP  0.0718
101. RRIRSRPPRLPRPRPRPGPCPRP  0.0781
102. RRIRIRPPRLPRPRPRPRWKPRP  0.0818
103. RRIRQRPPRLPRPRPRPSVVPRP  0.082
104. RRIRNRPPRLPRPRPRPRIKPRP  0.0822
105. RRIRFRPPRLPRPRPRPNEKPRP  0.0854
106. RRIRNRPPRLPRPRPRPGRMPRP  0.0895
107. RRIRPRPPRLPRPRPRPCLWPRP  0.0902
108. RRIRVRPPRLPRPRPRPGNWPRP  0.0971
109. RRIRDRPPRLPRPRPRPTSMPRP  0.104
110. RRIRGRPPRLPRPRPRPIMQPRP  0.105
111. RRIRERPPRLPRPRPRPKREPRP  0.118
112. RRIRHRPPRLPRPRPRPPTQPRP  0.137
113. RRIRGRPPRLPRPRPRPMVWPRP  0.156
114. RRIRGRPPRLPRPRPRPQRSPRP  0.16
115. RRIRGRPPRLPRPRPRPDHWPRP  0.186
116. RRIRARPPRLPRPRPRPHKGPRP  0.187
117. RRIRQRPPRLPRPRPRPGWLPRP  0.193
118. RRIRRRPPRLPRPRPRPHGQPRP  0.194
119. RRIRDRPPRLPRPRPRPPWCPRP  0.203
120. RRIRMRPPRLPRPRPRPMPFPRP  0.221
121. RRIRARPPRLPRPRPRPSTRPRP  0.23
122. RRIRPRPPRLPRPRPRPAMPPRP  0.246
123. RRIRRRPPRLPRPRPRPKQMPRP  0.29
124. RRIRRRPPRLPRPRPRPVFCPRP  0.291
125. RRIRKRPPRLPRPRPRPSKQPRP  0.292
126. RRIRARPPRLPRPRPRPLHEPRP  0.314
127. RRIRHRPPRLPRPRPRPPHNPRP  0.348
128. RRIRQRPPRLPRPRPRPGFWPRP  0.353
129. RRIRGRPPRLPRPRPRPSMKPRP  0.354
130. RRIRLRPPRLPRPRPRPKAEPRP  0.375
131. RRIRDRPPRLPRPRPRPRHRPRP  0.375
132. RRIRKRPPRLPRPRPRPGLGPRP  0.406
133. RRIRRRPPRLPRPRPRPAPYPRP  0.408
134. RRIRDRPPRLPRPRPRPGGVPRP  0.434
135. RRIRRRPPRLPRPRPRPRQVPRP  0.466
136. RRIRKRPPRLPRPRPRPIFVPRP  0.471
137. RRIRRRPPRLPRPRPRPVPSPRP  0.488
138. RRIRARPPRLPRPRPRPQTHPRP  0.491
139. RRIRDRPPRLPRPRPRPAPDPRP  0.533
140. RRIRMRPPRLPRPRPRPACSPRP  0.551
141. RRIRGRPPRLPRPRPRPRHEPRP  0.604
142. RRIRDRPPRLPRPRPRPCEMPRP  0.63
143. RRIRRRPPRLPRPRPRPTRGPRP  0.661
144. RRIRGRPPRLPRPRPRPDSVPRP  0.704
145. RRIRGRPPRLPRPRPRPLELPRP  0.741
146. RRIRMRPPRLPRPRPRPADCPRP  0.918
147. RRIRGRPPRLPRPRPRPTQNPRP  0.972
148. RRIRMRPPRLPRPRPRPPQWPRP  0.982
149. RRIRGRPPRLPRPRPRPMERPRP  1.36
150. RRIRIRPPRLPRPRPRPTFMPRP  1.69
